We go through 14 molecules from patent publication US20240059799A1 (Pfizer, published 2024).

Substitutions are numbered along the chain they refer to.

The labels stand for the following.
T1: recombinant human TL1A (human, UniProt O95150 71-251)
T1 construct: homotrimer; biotinylated for SPR capture; the ELISA paragraphs say only 'recombinant TL1A'; also called TNFSF15
T1 chain: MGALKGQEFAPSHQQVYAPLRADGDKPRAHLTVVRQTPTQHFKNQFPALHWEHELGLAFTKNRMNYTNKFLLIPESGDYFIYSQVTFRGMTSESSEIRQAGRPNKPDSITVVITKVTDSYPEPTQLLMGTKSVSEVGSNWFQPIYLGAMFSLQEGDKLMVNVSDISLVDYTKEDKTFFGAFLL

B1: TL1A-0012 (antibody, IgG1, V domains shown)
VH: QVQLVQSGAEVKKPGASVKVSCKASGYDFTYYGISWVRQAPGQGLEWMGWISTYNGNTHYADSLQGRVTMTTDTSTRTAYMELRSLRSDDTAVYYCARENYYGSGAYRGGMDVWGQGTTVTVSS
VL: EIVLTQSPATLSLSPGERATLSCRASQSVSSYLAWYQQKPGQAPRLLIYDASNRATGIPARFSGSGSGTDFTLTISSLEPEDFAVYYCQQRSNWPWTFGQGTKVEIKR
notes: IgG1/kappa variant of TL1A-0002
B2: TL1A-0028 (antibody, IgG1, V domains shown)
VH: B1 VH with D62R, S63M, Y102W
VL: B1 VL
notes: as for B1
B3: TL1A-0026 (antibody, IgG1, V domains shown)
VH: B1 VH with T58E
VL: B1 VL
notes: as for B1
B4: TL1A-0013 (antibody, IgG1, V domains shown)
VH: B1 VH with D62P
VL: B1 VL
notes: as for B1
B5: TL1A-0021 (antibody, IgG1, V domains shown)
VH: B1 VH with T58D, D62R, S63M
VL: B1 VL
notes: as for B1
B6: TL1A-0029 (antibody, IgG1, V domains shown)
VH: B1 VH with D62R, S63M, Y101L
VL: B1 VL
notes: as for B1
B7: TL1A-0014 (antibody, IgG1, V domains shown)
VH: B1 VH with D62Q, S63K
VL: B1 VL
notes: as for B1
B8: TL1A-0024 (antibody, IgG1, V domains shown)
VH: B1 VH with T58E, D62P
VL: B1 VL
notes: as for B1
B9: TL1A-0019 (antibody, IgG1, V domains shown)
VH: B1 VH with Y60H, D62R, S63M
VL: B1 VL
notes: as for B1
B10: TL1A-0022 (antibody, IgG1, V domains shown)
VH: B1 VH with T58E, D62R, S63M
VL: B1 VL
notes: as for B1
B11: TL1A-0030 (antibody, IgG1, V domains shown)
VH: B1 VH with D62R, S63M, A106E
VL: B1 VL
notes: as for B1
B12: TL1A-0027 (antibody, IgG1, V domains shown)
VH: B1 VH with T53A, H59N, D62Q, S63K
VL: B1 VL
notes: as for B1
B13: TL1A-0023 (antibody, IgG1, V domains shown)
VH: B1 VH with T58D, D62P
VL: B1 VL
notes: as for B1
B14: TL1A-0031 (antibody, IgG1, V domains shown)
VH: B1 VH with D62R, S63M, A106D
VL: B1 VL
notes: as for B1

This assay concerns the target T1, recombinant human TL1A. Briefly: competition ELISA vs bio-TL1A-0002. As for the experimental part:
For this competition ELISA assay procedure, 96-well high binding plates (Corning, product number 3590) were coated with 1 μg/mL recombinant TL1A in 100 μL/well in Phospate Buffered Saline (PBS) overnight at 4° C. Plates were then blocked in PBS+0.02% casein solution and washed with PBS+0.05% Tween-20 following standard ELISA protocol. […] Plates were washed with PBS+0.05% Tween-20 following standard ELISA protocol, and Streptavidin-HRP (Southern Biotech, product number 7100-05) diluted to 1:10,000 in assay buffer was added to plates and incubated for 25-30 minutes at room temperature. Next, the plates were washed with PBS+0.05% Tween-20 following standard ELISA protocol, and then TMB substrate (BioFX Laboratories, catalog number TMBW-0100-01) was added to plates. Reactions were stopped after approximately 5 minutes by adding 0.18 M ortho-phosphoric acid to each well and absorbance was read at 450 nm.
A general note: An ELISA detects its analyte on a solid surface through an enzyme-linked reagent.
The IC50 is the concentration that gives 50% inhibition. As to B1, the “Bioactivity relative to TL1A-0002” value is 1.1 fold and the 50% inhibitory concentration (IC50) was determined as 5 nM.

With B2, the “Bioactivity relative to TL1A-0002” value amounted to 1.2 fold and the IC50 worked out at 5.4 nM.

Consider B3, for which the “Bioactivity relative to TL1A-0002” value was 2 fold and the IC50 is 8.9 nM.

For the molecule B4, the “Bioactivity relative to TL1A-0002” value came out at 1.2 fold and the IC50 was determined as 5.5 nM.

With B5, the “Bioactivity relative to TL1A-0002” value was found to be 1.3 fold and the IC50 was 6 nM.

On to B6, for which the “Bioactivity relative to TL1A-0002” value is 1.7 fold and the IC50 stood at 7.8 nM.

For B7, the “Bioactivity relative to TL1A-0002” value came out at 1.1 fold and the IC50 turned out to be 5.1 nM.

As for B8, the “Bioactivity relative to TL1A-0002” value was 1.2 fold and the IC50 was 5.4 nM.

Regarding B9, the “Bioactivity relative to TL1A-0002” value amounted to 1.1 fold and the IC50 is 5 nM.

As to B10, the “Bioactivity relative to TL1A-0002” value worked out at 1.5 fold and the IC50 came out at 6.9 nM.

Consider B11, for which the “Bioactivity relative to TL1A-0002” value is 1.4 fold and the IC50 was 6.1 nM.

For B12, the “Bioactivity relative to TL1A-0002” value is 1.9 fold and the IC50 came out at 8.3 nM.

With B13, the “Bioactivity relative to TL1A-0002” value is 1.3 fold and the IC50 stood at 5.6 nM.

For the molecule B14, the “Bioactivity relative to TL1A-0002” value is 1.6 fold and the IC50 was 7.4 nM.
